# Reference: patent US20170145069A1 (Novo Nordisk, published 2017)
# Where a chain is given by its changes, count along the chain named. *1 amine or outer side, *2 acyl side, *3 side chain or, on linkers, in order; H or OH if unused. Where no end group is shown, it is not given here. Side-chain parts run from the residue outwards. [ ]: non-standard residue; d: D form. The star is where a group is joined. Dodecanoyl(12-OPh(4-COOH)) = O=C(O)c1ccc(OCCCCCCCCCCCC(=O)*)cc1; Undecanoyl(11-OPh(4-COOH)) = O=C(O)c1ccc(OCCCCCCCCCCC(=O)*)cc1; Decanoyl(10-(4-HOOC-PhO)) = O=C(O)c1ccc(OCCCCCCCCCC(=O)*)cc1; γGlu = O=C(O)[C@H](CCC(=O)[*:2])N[*:1]; εLys = N[C@@H](CCCCN[*:1])C(=O)[*:2]; 13‑carboxytridecanoyl = C14 diacid; AEEA = NCCOCCOCC(=O)O; Aib = CC(C)(N)C(=O)O
# B1: GLP-1 derivative of Example 11 (Chem. 30), N^eps26- and C-terminal-Lys-N^eps-diacylated [Aib^8,His^31,Gln^34]-GLP-1-(7-37)-peptidyl-Lys (peptide)
# peptide: HXEGTFTSDVSSYLEGQAAKEFIAHLVQGRGK
# modifications: Aib at 8; eps-amino of Lys26 and of the added C-terminal Lys (position 38) each acylated with 10-(4-carboxyphenoxy)decanoyl-gGlu-Ser-Ser-Gly-Ser-Ser-Gly
# B2: Comparative compound of Example 1a: Compound of Example 2, Chem. 21, in WO 2011/080103 (peptide)
# peptide: HXEGTFTSDVSSYLEGQAAKEFIAWLVRGRK
# modifications: not fully specified; Aib at 8; eps-amino of Lys26 and Lys37 each acylated with 10-(4-carboxyphenoxy)decanoyl via the gGlu-2xOEG linker (as Example 1, only the linker differs)
# B3: GLP-1 derivative of Example 30 (Chem. 49), N^eps26,N^eps37-diacylated [Imp^7,Aib^8,Arg^34,Lys^37]-GLP-1-(7-37)-peptide (peptide)
# peptide: B2 peptide with H1X
# modifications: Imp (imidazopropionyl, des-amino histidine) at 7; Aib at 8; eps-amino of Lys26 and Lys37 each acylated with 12-(4-carboxyphenoxy)dodecanoyl-gGlu-Ser-Gly-Ser-eps-Lys
# Target: T1, human GLP-1 receptor (human, UniProt P43220 24-463)
# Assay: cell-based or functional assay
row,Binder,In vitro potency (AlphaScreen cAMP; membranes) EC50 [nM]
1,"H[Aib]EGTFTSDVSK([AEEA-AEEA-γGlu-Decanoyl(10-(4-HOOC-PhO))])YLEGQAAK([AEEA-AEEA-γGlu-Decanoyl(10-(4-HOOC-PhO))])EFIAWLVQGRG [Comparative compound of Example 9a: Compound of Example 92, Chem. 111, in WO 2012/062803]",1.59
2,H[Aib]EGTFTSDVSK([Ser-Ser-Ser-Ser-Ser-Ser-γGlu-Undecanoyl(11-OPh(4-COOH))])YLEGQAAK([Ser-Ser-Ser-Ser-Ser-Ser-γGlu-Undecanoyl(11-OPh(4-COOH))])EFIAWLVQGRG,0.146
3,HAEGTFTSDVSSYLEGQAAK([Gly-Ser-Ser-Gly-Ser-Ser-γGlu-Decanoyl(10-(4-HOOC-PhO))])EFIAWLVRGRK([Gly-Ser-Ser-Gly-Ser-Ser-γGlu-Decanoyl(10-(4-HOOC-PhO))])E,0.048
4,H[Aib]EGTFTSDVSK([εLys-Gly-Ser-Ser-Gly-Ser-Ser-γGlu-Undecanoyl(11-OPh(4-COOH))])YLEGQAAK([εLys-Gly-Ser-Ser-Gly-Ser-Ser-γGlu-Undecanoyl(11-OPh(4-COOH))])EFIAWLVQGRG,0.089
5,"H[Aib]EGTFTSDVSK([AEEA-AEEA-γGlu-13‑carboxytridecanoyl])YLEGQAAK([AEEA-AEEA-γGlu-13‑carboxytridecanoyl])EFIAWLVQGRG [Comparative compound of Example 22a: Compound of Example 141, Chem. 189, in WO 2012/062803]",1.14
6,H[Aib]EGTFTSDVSK([Gly-Ser-Ser-Gly-Ser-Ser-Gly-Ser-Ser-Gly-Ser-Ser-γGlu-Undecanoyl(11-OPh(4-COOH))])YLEGQAAK([Gly-Ser-Ser-Gly-Ser-Ser-Gly-Ser-Ser-Gly-Ser-Ser-γGlu-Undecanoyl(11-OPh(4-COOH))])EFIAWLVQGRG,0.171
7,H[Aib]EGTFTSDVSK([εLys-Gly-Ser-Ser-Gly-Ser-Ser-Gly-Ser-Ser-Gly-Ser-Ser-γGlu-Undecanoyl(11-OPh(4-COOH))])YLEGQAAK([εLys-Gly-Ser-Ser-Gly-Ser-Ser-Gly-Ser-Ser-Gly-Ser-Ser-γGlu-Undecanoyl(11-OPh(4-COOH))])EFIAWLVQGRG,0.35
8,H[Aib]EGTFTSDVSK([εLys-Gly-Ser-Ser-Gly-Ser-Ser-Gly-Ser-Ser-Gly-Ser-Ser-Gly-Ser-Ser-Gly-Ser-Ser-γGlu-Undecanoyl(11-OPh(4-COOH))])YLEGQAAK([εLys-Gly-Ser-Ser-Gly-Ser-Ser-Gly-Ser-Ser-Gly-Ser-Ser-Gly-Ser-Ser-Gly-Ser-Ser-γGlu-Undecanoyl(11-OPh(4-COOH))])EFIAWLVQGRG,0.486
9,H[Aib]EGTFTSDVSK([Gly-Ser-Ser-Gly-Ser-Ser-γGlu-Dodecanoyl(12-OPh(4-COOH))])YLEGQAAK([Gly-Ser-Ser-Gly-Ser-Ser-γGlu-Dodecanoyl(12-OPh(4-COOH))])EFIAWLVQGRG,0.314
10,B1,0.381
11,H[Aib]EGTFTSDVSK([Ala-Ser-Ser-Ala-Ser-Ser-γGlu-Undecanoyl(11-OPh(4-COOH))])YLEGQAAK([Ala-Ser-Ser-Ala-Ser-Ser-γGlu-Undecanoyl(11-OPh(4-COOH))])EFIAWLVQGRG,0.183

# Target: T1, human GLP-1 receptor
# Assay: SPA, displacement of 125I-GLP-1(7-36)NH2, BHK membranes, 0.001% HSA
# Experimental: Test compounds, membranes, SPA-particles and [¹²⁵I] ]-GLP-1(7-36)NH₂ were diluted in assay buffer. 50 ul (micro liter) buffer (“low albumin” experiment containing 0.001% HSA) was added to Optiplate, and 25 ul of test compounds were added. 5-10 μg membrane protein/sample was added (50 μl) corresponding to 0.1-0.2 mg protein/ml (to be preferably optimised for each membrane preparation). SPA-particles (Wheatgerm agglutinin SPA beads, Perkin Elmer, #RPNQ0001) were added in an amount of 0.5 mg/well (50 μl). The incubation was started with [¹²⁵I]-GLP-1]-(7-36)NH₂ (final concentration 0.06 nM corresponding to 49.880 DPM, 25 μl). The plates were sealed with PlateSealer and incubated for 120 minutes at 30° C. while shaking. The plates were centrifuged (1500 rpm, 10 min) and counted in Topcounter.
# The IC₅₀ value was read from the curve as the concentration which displaces 50% of ¹²⁵I-GLP-1 from the receptor.
row,Binder,IC50 [nM]
1,B2,2.27
2,B3,0.18
3,H[Aib]EGTFTSDVSK([Gly-Ser-Ser-Gly-Ser-Ser-γGlu-Undecanoyl(11-OPh(4-COOH))])YLEGQAAK([Gly-Ser-Ser-Gly-Ser-Ser-γGlu-Undecanoyl(11-OPh(4-COOH))])EFIAWLVQGRG,0.37
4,"H[Aib]EGTFTSDVSK([AEEA-AEEA-γGlu-Decanoyl(10-(4-HOOC-PhO))])YLEGQAAK([AEEA-AEEA-γGlu-Decanoyl(10-(4-HOOC-PhO))])EFIAWLVQGRG [Comparative compound of Example 9a: Compound of Example 92, Chem. 111, in WO 2012/062803]",8.09
5,H[Aib]EGTFTSDVSK([Ser-Ser-Ser-Ser-Ser-Ser-γGlu-Undecanoyl(11-OPh(4-COOH))])YLEGQAAK([Ser-Ser-Ser-Ser-Ser-Ser-γGlu-Undecanoyl(11-OPh(4-COOH))])EFIAWLVQGRG,0.54
6,HAEGTFTSDVSSYLEGQAAK([Gly-Ser-Ser-Gly-Ser-Ser-γGlu-Decanoyl(10-(4-HOOC-PhO))])EFIAWLVRGRK([Gly-Ser-Ser-Gly-Ser-Ser-γGlu-Decanoyl(10-(4-HOOC-PhO))])E,0.58
7,H[Aib]EGTFTSDVSK([εLys-Gly-Ser-Ser-Gly-Ser-Ser-γGlu-Undecanoyl(11-OPh(4-COOH))])YLEGQAAK([εLys-Gly-Ser-Ser-Gly-Ser-Ser-γGlu-Undecanoyl(11-OPh(4-COOH))])EFIAWLVQGRG,0.48
8,"H[Aib]EGTFTSDVSK([AEEA-AEEA-γGlu-13‑carboxytridecanoyl])YLEGQAAK([AEEA-AEEA-γGlu-13‑carboxytridecanoyl])EFIAWLVQGRG [Comparative compound of Example 22a: Compound of Example 141, Chem. 189, in WO 2012/062803]",48.4
9,H[Aib]EGTFTSDVSK([Gly-Ser-Ser-Gly-Ser-Ser-Gly-Ser-Ser-Gly-Ser-Ser-γGlu-Undecanoyl(11-OPh(4-COOH))])YLEGQAAK([Gly-Ser-Ser-Gly-Ser-Ser-Gly-Ser-Ser-Gly-Ser-Ser-γGlu-Undecanoyl(11-OPh(4-COOH))])EFIAWLVQGRG,1.34
10,H[Aib]EGTFTSDVSK([εLys-Gly-Ser-Ser-Gly-Ser-Ser-Gly-Ser-Ser-Gly-Ser-Ser-γGlu-Undecanoyl(11-OPh(4-COOH))])YLEGQAAK([εLys-Gly-Ser-Ser-Gly-Ser-Ser-Gly-Ser-Ser-Gly-Ser-Ser-γGlu-Undecanoyl(11-OPh(4-COOH))])EFIAWLVQGRG,2.27
11,H[Aib]EGTFTSDVSK([εLys-Gly-Ser-Ser-Gly-Ser-Ser-Gly-Ser-Ser-Gly-Ser-Ser-Gly-Ser-Ser-Gly-Ser-Ser-γGlu-Undecanoyl(11-OPh(4-COOH))])YLEGQAAK([εLys-Gly-Ser-Ser-Gly-Ser-Ser-Gly-Ser-Ser-Gly-Ser-Ser-Gly-Ser-Ser-Gly-Ser-Ser-γGlu-Undecanoyl(11-OPh(4-COOH))])EFIAWLVQGRG,4.87
12,H[Aib]EGTFTSDVSK([Gly-Ser-Ser-Gly-Ser-Ser-γGlu-Dodecanoyl(12-OPh(4-COOH))])YLEGQAAK([Gly-Ser-Ser-Gly-Ser-Ser-γGlu-Dodecanoyl(12-OPh(4-COOH))])EFIAWLVQGRG,0.84
13,B1,12.8
14,H[Aib]EGTFTSDVSK([Ala-Ser-Ser-Ala-Ser-Ser-γGlu-Undecanoyl(11-OPh(4-COOH))])YLEGQAAK([Ala-Ser-Ser-Ala-Ser-Ser-γGlu-Undecanoyl(11-OPh(4-COOH))])EFIAWLVQGRG,0.5

# Target: T1, human GLP-1 receptor
# Assay: cell-based or functional assay
# Remark: another data set of the same source
row,Binder,In vitro potency (CRE-luciferase) low albumin EC50 [nM]
1,B3,0.0094
2,H[Aib]EGTFTSDVSK([Gly-Ser-Ser-Gly-Ser-Ser-γGlu-Undecanoyl(11-OPh(4-COOH))])YLEGQAAK([Gly-Ser-Ser-Gly-Ser-Ser-γGlu-Undecanoyl(11-OPh(4-COOH))])EFIAWLVQGRG,0.0056
3,H[Aib]EGTFTSDVSK([Ser-Ser-Ser-Ser-Ser-Ser-γGlu-Undecanoyl(11-OPh(4-COOH))])YLEGQAAK([Ser-Ser-Ser-Ser-Ser-Ser-γGlu-Undecanoyl(11-OPh(4-COOH))])EFIAWLVQGRG,0.0083
4,HAEGTFTSDVSSYLEGQAAK([Gly-Ser-Ser-Gly-Ser-Ser-γGlu-Decanoyl(10-(4-HOOC-PhO))])EFIAWLVRGRK([Gly-Ser-Ser-Gly-Ser-Ser-γGlu-Decanoyl(10-(4-HOOC-PhO))])E,0.008
5,"H[Aib]EGTFTSDVSK([AEEA-AEEA-γGlu-13‑carboxytridecanoyl])YLEGQAAK([AEEA-AEEA-γGlu-13‑carboxytridecanoyl])EFIAWLVQGRG [Comparative compound of Example 22a: Compound of Example 141, Chem. 189, in WO 2012/062803]",0.174
6,H[Aib]EGTFTSDVSK([Gly-Ser-Ser-Gly-Ser-Ser-Gly-Ser-Ser-Gly-Ser-Ser-γGlu-Undecanoyl(11-OPh(4-COOH))])YLEGQAAK([Gly-Ser-Ser-Gly-Ser-Ser-Gly-Ser-Ser-Gly-Ser-Ser-γGlu-Undecanoyl(11-OPh(4-COOH))])EFIAWLVQGRG,0.029
7,H[Aib]EGTFTSDVSK([εLys-Gly-Ser-Ser-Gly-Ser-Ser-Gly-Ser-Ser-Gly-Ser-Ser-Gly-Ser-Ser-Gly-Ser-Ser-γGlu-Undecanoyl(11-OPh(4-COOH))])YLEGQAAK([εLys-Gly-Ser-Ser-Gly-Ser-Ser-Gly-Ser-Ser-Gly-Ser-Ser-Gly-Ser-Ser-Gly-Ser-Ser-γGlu-Undecanoyl(11-OPh(4-COOH))])EFIAWLVQGRG,0.047
8,H[Aib]EGTFTSDVSK([Gly-Ser-Ser-Gly-Ser-Ser-γGlu-Dodecanoyl(12-OPh(4-COOH))])YLEGQAAK([Gly-Ser-Ser-Gly-Ser-Ser-γGlu-Dodecanoyl(12-OPh(4-COOH))])EFIAWLVQGRG,0.0096
9,H[Aib]EGTFTSDVSK([Ala-Ser-Ser-Ala-Ser-Ser-γGlu-Undecanoyl(11-OPh(4-COOH))])YLEGQAAK([Ala-Ser-Ser-Ala-Ser-Ser-γGlu-Undecanoyl(11-OPh(4-COOH))])EFIAWLVQGRG,0.015
